Target: PF-4 in cynomolgus monkey plasma (cynomolgus monkey)
Assay: aligned sandwich ELISA, cyno plasma

- AUC Ratio vs anti-HPF4: 1
- anti-HPF4 AUC mean: 2.9
Substance: monoclonal anti-HPF4 antibody (Abcam cat. no.: ab49735)

From patent publication US20240075114A1
